Values belong to the molecule of their own block, whether it stands above or below them. Where no end group is shown, it is not given here.
What was measured:
[1] = molecular target: fluorescent receptor NK2R-RF1 (construct pCEP4-NK2R-RF1): EGFP fused between the alpha7 signal peptide and the amino-terminal end of the rat NK2R receptor, expressed on HEK 293 cells (Aequorea victoria; rat) (UniProt P16610); assay: displacement of 3H SR 48968 on HEK 293 cells expressing NK2R-RF1, filtration (FIG. 8b)
[2] = molecular target: wild-type rat NK2R receptor of tachykinins (construct pCEP4-NK2R), expressed on HEK 293 cells (rat) (UniProt P16610); assay: displacement of 3H SR 48968 on HEK 293 cells expressing wild-type NK2R, filtration
[3] = molecular target: fluorescent receptor NK2R-RF1 (construct pCEP4-NK2R-RF1): EGFP fused between the alpha7 signal peptide and the amino-terminal end of the rat NK2R receptor, expressed on HEK 293 cells (Aequorea victoria; rat) (UniProt P16610); assay: displacement of 3H SR 48968 on HEK 293 cells expressing NK2R-RF1, filtration
[4] = molecular target: fluorescent receptor NK2R-RF1 (construct pCEP4-NK2R-RF1): EGFP fused between the alpha7 signal peptide and the amino-terminal end of the rat NK2R receptor, expressed on HEK 293 cells (Aequorea victoria; rat) (UniProt P16610); assay: FRET saturation on cells expressing NK2R-RF1, 0 to 256 nM NKA BO I
[5] = molecular target: T1, wild-type rat NK2R receptor of tachykinins (construct pCEP4-NK2R), expressed on HEK 293 cells (rat, UniProt P16610 1-390); assay: displacement of 3H SR 48968 on HEK 293 cells expressing NK2R-WT, filtration (FIG. 8a)
T1 construct: whole, on cells; Stably expressed in HEK 293 cells; also called NK2R-WT; NK2R WT
T1 sequence (looked up): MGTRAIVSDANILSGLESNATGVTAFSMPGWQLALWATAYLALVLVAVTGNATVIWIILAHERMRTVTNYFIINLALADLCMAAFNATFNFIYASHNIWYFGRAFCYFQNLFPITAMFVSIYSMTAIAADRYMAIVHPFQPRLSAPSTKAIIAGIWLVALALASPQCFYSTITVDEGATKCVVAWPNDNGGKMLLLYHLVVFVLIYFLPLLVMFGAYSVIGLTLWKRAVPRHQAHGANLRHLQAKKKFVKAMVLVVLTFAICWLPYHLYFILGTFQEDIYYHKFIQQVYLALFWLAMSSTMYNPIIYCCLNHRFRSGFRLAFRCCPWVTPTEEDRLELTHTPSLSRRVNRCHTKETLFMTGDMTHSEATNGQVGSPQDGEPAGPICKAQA
Experimental: The incubation is carried out for one hour at 4° C. Filtration is carried out at the end of incubation, as described in 3b).

[6] = molecular target: fluorescent receptor NK2R-RF1 (construct pCEP4-NK2R-RF1): EGFP fused between the alpha7 signal peptide and the amino-terminal end of the rat NK2R receptor, expressed on HEK 293 cells (Aequorea victoria; rat) (UniProt P16610); assay: FRET saturation: amplitude of EGFP fluorescence extinction against NKA BO I concentration, cells expressing NK2R-RF1 (FIG. 13)

- Ki [1]: 2.1 nM
Molecule: neurokinin A (from UniProt P20366 98-107) (peptide)

- Ki [2]: 53 nM
- Ki [3]: 61 nM
Molecule: MEN 10,376 (Bachem) (peptide)

- Kd [4]: 20 to 30 nM
- Ki [1]: 16.1 nM
- Ki [5]: 16.1 nM
- Kd [6]: 24 nM
B1: NKA BO I (neurokinin A labeled with BODIPY 530/550 IA) (peptide, UniProt P20366 98-107, looked up)
peptide: HKTDSFVGLM
modifications: also: BODIPY 530/550 IA label, site not given here
notes: mature; HPLC-purified reaction product of NKA with BODIPY 530/550 IA; also called NKA BO 1; NKA-Bodipy derivative

Source: US20060275828A1 (CENTRE NATIONAL DE LA RECHERCHE SCIENTIFIQUE, published 2006)
